Assay results published in IntAct's records for PubMed 21703451.

B1: Transient receptor potential protein (Drosophila melanogaster (Fruit fly)), P19334 (parent)
chain: MGSNTESDAEKALGSRLDYDLMMAEEYILSDVEKNFILSCERGDLPGVKKILEEYQGTDKFNINCTDPMNRSALISAIENENFDLMVILLEHNIEVGDALLHAISEEYVEAVEELLQWEETNHKEGQPYSWEAVDRSKSTFTVDITPLILAAHRNNYEILKILLDRGATLPMPHDVKCGCDECVTSQMTDSLRHSQSRINAYRALSASSLIALSSRDPVLTAFQLSWELKRLQAMESEFRAEYTEMRQMVQDFGTSLLDHARTSMELEVMLNFNHEPSHDIWCLGQRQTLERLKLAIRYKQKTFVAHPNVQQLLAAIWYDGLPGFRRKQASQQLMDVVKLGCSFPIYSLKYILAPDSEGAKFMRKPFVKFITHSCSYMFFLMLLGAASLRVVQITFELLAFPWMLTMLEDWRKHERGSLPGPIELAIITYIMALIFEELKSLYSDGLFEYIMDLWNIVDYISNMFYVTWILCRATAWVIVHRDLWFRGIDPYFPREHWHPFDPMLLSEGAFAAGMVFSYLKLVHIFSINPHLGPLQVSLGRMIIDIIKFFFIYTLVLFAFGCGLNQLLWYYAELEKNKCYHLHPDVADFDDQEKACTIWRRFSNLFETSQSLFWASFGLVDLVSFDLAGIKSFTRFWALLMFGSYSVINIIVLLNMLIAMMSNSYQIISERADTEWKFARSQLWMSYFEDGGTIPPPFNLCPNMKMLRKTLGRKRPSRTKSFMRKSMERAQTLHDKVMKLLVRRYITAEQRRRDDYGITEDDIIEVRQDISSLRFELLEIFTNNNWDVPDIEKKSQGVARTTKGKVMERRILKDFQIGFVENLKQEMSESESGRDIFSSLAKVIGRKKTQKGDKDWNAIARKNTFASDPIGSKRSSMQRHSQRSLRRKIIEQANEGLQMNQTQLIEFNPNLGDVTRATRVAYVKFMRKKMAADEVSLADDEGAPNGEGEKKPLDASGSKKSITSGGTGGGASMLAAAALRASVKNVDEKSGADGKPGTMGKPTDDKKAGDDKDKQQPPKDSKPSAGGPKPGDQKPTPGAGAPKPQAAGTISKPGESQKKDAPAPPTKPGDTKPAAPKPGESAKPEAAAKKEESSKTEASKPAATNGAAKSAAPSAPSDAKPDSKLKPGAAGAPEATKATNGASKPDEKKSGPEEPKKAAGDSKPGDDAKDKDKKPGDDKDKKPGDDKDKKPADNNDKKPADDKDKKPGDDKDKKPGDDKDKKPSDDKDKKPADDKDKKPAAAPLKPAIKVGQSSAAAGGERGKSTVTGRMISGWL

Variants of: B1
Details: with inad_drome inaD

effect of a mutation on the interaction	Variant
decreasing interaction	V1266A
disrupting interaction	V1266A;W1274A
